Values of other authors, collected in US20020094542A1, “Drugs and methods for treating cancer” (priority 1989, published 2002).

Details: patients with kidney transplants

Q: With “OKT3: monoclonal heterologous AB used clinically in patients with kidney transplants” as the substance, how does the side-effects of treatment read?
A: Its side-effects of treatment is “low (flu-like)”.
